How the values were obtained:
MMTV-PyMT tumor = test: Histological analysis of injected CBD-SA within tumor; format: in vivo, mouse; conditions: 1 h after i.v. injection, CD31 staining
Experimental: Mouse SA (Sigma-Aldrich) and CBD-SA were conjugated with NHS-DyLight 488 according to manufacturer's instructions. Unreacted dye was removed by Zeba spin desalting column, then fluorescent protein solution was stored at 4° C. until use. 100 μg of fluorescent labeled SA or CBD-SA labeled with equimolar of dye was intravenously injected to MMTV-PyMT tumor-bearing mice. 1 h after injection, tumors were harvested and frozen in dry ice with OCT compound. 10 μm of tissue slices were obtained by cryo-sectioning. The tissues were fixed with 2% paraformaldehyde in PBS for 15 min at room temperature. After wash with PBS-T, the tissues were blocked with 2% BSA in PBS-T for 1 h at room temperature. The tissues were stained with biotin labeled anti-mouse CD31 antibody (1:100, Biolegend) and Alexa Fluor 647 streptavidin (1:1000, Biolegend). The tissues were washed three times, then covered with ProLong gold antifade mountant with DAPI (Thermo fisher scientific). IX83 microscope (Olympus) was used for imaging with ×60 magnification. Images were processed using ImageJ software (NIH).

collagen type III = target: T1, collagen type III (Homo sapiens, UniProt P02461); test: Binding affinity of CBD-SA to collagen by ELISA
T1 sequence (P02461 154-1221 limits assumed): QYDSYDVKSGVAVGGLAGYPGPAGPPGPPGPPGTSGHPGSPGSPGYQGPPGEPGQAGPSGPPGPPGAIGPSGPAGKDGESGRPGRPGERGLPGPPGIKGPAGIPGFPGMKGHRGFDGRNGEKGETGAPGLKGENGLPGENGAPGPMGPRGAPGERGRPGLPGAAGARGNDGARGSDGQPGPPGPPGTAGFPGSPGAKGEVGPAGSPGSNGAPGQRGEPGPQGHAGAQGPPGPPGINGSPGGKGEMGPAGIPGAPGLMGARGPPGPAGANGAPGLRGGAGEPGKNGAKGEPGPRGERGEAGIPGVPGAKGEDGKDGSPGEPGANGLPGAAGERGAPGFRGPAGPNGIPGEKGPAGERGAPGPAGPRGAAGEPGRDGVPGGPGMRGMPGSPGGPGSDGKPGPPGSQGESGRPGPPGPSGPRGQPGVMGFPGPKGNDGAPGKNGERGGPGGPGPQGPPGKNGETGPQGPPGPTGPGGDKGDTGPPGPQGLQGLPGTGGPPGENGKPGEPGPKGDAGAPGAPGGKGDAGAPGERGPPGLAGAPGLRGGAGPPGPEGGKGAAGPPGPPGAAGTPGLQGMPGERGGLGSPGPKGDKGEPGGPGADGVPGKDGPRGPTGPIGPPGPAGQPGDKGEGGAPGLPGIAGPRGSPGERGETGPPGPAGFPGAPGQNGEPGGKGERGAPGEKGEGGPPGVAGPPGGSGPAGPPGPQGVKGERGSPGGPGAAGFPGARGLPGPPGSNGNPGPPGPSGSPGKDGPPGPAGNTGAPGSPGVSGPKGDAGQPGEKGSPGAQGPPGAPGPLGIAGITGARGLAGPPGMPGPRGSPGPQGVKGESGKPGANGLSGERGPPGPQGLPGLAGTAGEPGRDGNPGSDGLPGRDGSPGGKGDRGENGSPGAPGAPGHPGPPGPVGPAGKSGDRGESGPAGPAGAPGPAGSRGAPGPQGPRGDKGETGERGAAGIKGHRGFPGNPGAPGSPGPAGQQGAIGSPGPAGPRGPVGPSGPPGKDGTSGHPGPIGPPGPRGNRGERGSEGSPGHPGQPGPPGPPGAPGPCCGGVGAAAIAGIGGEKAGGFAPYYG
Experimental: (§1) The binding affinity of CBD-SA to collagens were tested as described previously (9). 96 well ELISA plates (Greiner Bio-One) were coated with collagen I or collagen III (10 μg/mL each in PBS) for overnight at 37° C., followed by blocking with 2% BSA in PBS with 0.05% Tween 20 (PBS-T) for 1 h at room temperature. Then, wells were washed with PBS-T and further incubated with CBD-SA at increasing concentrations for 2 h at room temperature. After three washes with PBS-T, wells were incubated for 1 h at room temperature with biotin- conjugated Abs against mouse SA. After washes, bound CBD-SA were detected with tetramethylbenzidine substrate by measurement of the absorbance at 450 nm with subtraction of the absorbance at 570 nm. The apparent Kd values were obtained by nonlinear regression analysis in Prism software (version 7, GraphPad) assuming one-site-specific binding.

collagen type I = collagen type I (Homo sapiens, UniProt P02452+P08123); test: Binding affinity of CBD-SA to collagen by ELISA
Chain of collagen type I (P02452 162-1218 limits assumed): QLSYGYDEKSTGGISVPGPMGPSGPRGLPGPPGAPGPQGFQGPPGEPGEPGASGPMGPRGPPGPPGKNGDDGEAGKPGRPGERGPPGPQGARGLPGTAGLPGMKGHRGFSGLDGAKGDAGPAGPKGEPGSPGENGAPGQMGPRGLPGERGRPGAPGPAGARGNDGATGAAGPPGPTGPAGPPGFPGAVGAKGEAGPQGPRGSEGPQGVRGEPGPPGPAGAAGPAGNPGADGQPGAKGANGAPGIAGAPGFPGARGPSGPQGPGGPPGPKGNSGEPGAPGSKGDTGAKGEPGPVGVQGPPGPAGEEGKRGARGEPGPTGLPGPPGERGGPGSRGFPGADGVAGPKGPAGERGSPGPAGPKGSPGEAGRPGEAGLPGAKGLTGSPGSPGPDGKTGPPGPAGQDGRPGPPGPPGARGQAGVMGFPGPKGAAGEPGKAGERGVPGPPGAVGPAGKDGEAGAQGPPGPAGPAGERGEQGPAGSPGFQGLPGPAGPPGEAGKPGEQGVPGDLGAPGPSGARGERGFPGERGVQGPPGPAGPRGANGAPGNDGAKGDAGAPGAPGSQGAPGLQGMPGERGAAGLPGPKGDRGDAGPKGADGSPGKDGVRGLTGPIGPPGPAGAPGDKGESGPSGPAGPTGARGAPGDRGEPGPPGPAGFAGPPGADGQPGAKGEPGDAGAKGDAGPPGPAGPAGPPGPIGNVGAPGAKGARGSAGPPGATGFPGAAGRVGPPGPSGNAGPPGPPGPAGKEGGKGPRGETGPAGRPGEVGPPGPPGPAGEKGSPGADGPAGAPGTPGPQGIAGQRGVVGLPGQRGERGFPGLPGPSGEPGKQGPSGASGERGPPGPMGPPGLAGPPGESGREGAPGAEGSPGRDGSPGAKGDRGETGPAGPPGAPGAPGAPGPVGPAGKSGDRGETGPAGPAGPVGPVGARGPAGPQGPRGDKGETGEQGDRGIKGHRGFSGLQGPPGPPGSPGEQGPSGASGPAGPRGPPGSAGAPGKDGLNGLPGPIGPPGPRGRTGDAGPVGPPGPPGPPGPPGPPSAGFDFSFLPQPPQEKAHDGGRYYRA
Chain of collagen type I (P08123 80-1119 limits assumed): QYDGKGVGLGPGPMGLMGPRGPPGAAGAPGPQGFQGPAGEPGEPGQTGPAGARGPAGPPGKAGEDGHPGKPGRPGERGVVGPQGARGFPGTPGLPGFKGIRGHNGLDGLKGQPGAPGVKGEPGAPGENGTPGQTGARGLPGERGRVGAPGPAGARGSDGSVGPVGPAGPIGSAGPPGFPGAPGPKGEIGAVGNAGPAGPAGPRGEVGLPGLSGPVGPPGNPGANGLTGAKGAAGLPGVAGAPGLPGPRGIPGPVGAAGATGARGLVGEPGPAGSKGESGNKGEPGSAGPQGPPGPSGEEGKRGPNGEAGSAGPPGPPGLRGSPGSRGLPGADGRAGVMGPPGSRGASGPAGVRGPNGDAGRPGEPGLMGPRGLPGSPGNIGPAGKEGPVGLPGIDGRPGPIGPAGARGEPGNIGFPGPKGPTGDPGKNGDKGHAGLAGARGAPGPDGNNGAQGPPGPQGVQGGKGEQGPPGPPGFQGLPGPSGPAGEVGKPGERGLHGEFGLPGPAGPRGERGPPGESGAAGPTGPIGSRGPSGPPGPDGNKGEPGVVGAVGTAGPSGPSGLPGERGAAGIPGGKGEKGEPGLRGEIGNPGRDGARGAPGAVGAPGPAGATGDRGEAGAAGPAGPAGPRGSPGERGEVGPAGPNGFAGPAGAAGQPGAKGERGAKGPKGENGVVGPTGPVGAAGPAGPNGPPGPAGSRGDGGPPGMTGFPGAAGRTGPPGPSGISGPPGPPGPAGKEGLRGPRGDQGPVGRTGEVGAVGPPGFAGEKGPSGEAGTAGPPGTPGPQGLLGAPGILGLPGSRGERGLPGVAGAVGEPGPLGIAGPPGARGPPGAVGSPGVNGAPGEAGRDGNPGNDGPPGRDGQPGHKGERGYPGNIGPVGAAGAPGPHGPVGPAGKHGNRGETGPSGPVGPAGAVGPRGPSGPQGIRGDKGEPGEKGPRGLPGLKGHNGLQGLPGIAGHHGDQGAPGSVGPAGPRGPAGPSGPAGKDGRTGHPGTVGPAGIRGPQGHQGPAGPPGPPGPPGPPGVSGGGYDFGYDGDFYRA
Experimental: as §1

B1: CBD-SA: recombinant mouse serum albumin with VWF A3 collagen binding domain on the N-terminus via (GGGS)2 linker (SEQ ID NO:3) (protein)
chain: CSQPLDVILLLDGSSSFPASYFDEMKSFAKAFISKANIGPRLTQVSVLQYGSITTIDVPWNVVPEKAHLLSLVDVMQREGGPSQIGDALGFAVRYLTSEMHGARPGASKAVVILVTDVSVDSVDAAADAARSNRVTVFPIGIGDRYDAAQLRILAGPAGDSNVVKLQRIEDLPTMVTLGNSFLHKLCSGFVRIGGGSGGGSEAHKSEIAHRYNDLGEQHFKGLVLIAFSQYLQKCSYDEHAKLVQEVTDFAKTCVADESAANCDKSLHTLFGDKLCAIPNLRENYGELADCCTKQEPERNECFLQHKDDNPSLPPFERPEAEAMCTSFKENPTTFMGHYLHEVARRHPYFYAPELLYYAEQYNEILTQCCAEADKESCLTPKLDGVKEKALVSSVRQRMKCSSMQKFGERAFKAWAVARLSQTFPNADFAEITKLATDLTKVNKECCHGDLLECADDRAELAKYMCENQATISSKLQTCCDKPLLKKAHCLSEVEHDTMPADLPAIAADFVEDQEVCKNYAEAKDVFLGTFLYEYSRRHPDYSVSLLLRLAKKYEATLEKCCAEANPPACYGTVLAEFQPLVEEPKNLVKTNCDLYEKLGEYGFQNAILVRYTQKAPQVSTPTLVEAARNLGRVGTKCCTLPEDQRLPCVEDYLSAILNRVCLLHEKTPVSEHVTKCCSGSLVERRPCFSALTVDETYVPKEFKAETFTFHSDICTLPEKEKQIKKQTALAELVKHKPKATAEQLKTVMDDFAQFLDTCCKAADKDTCFSTEGPNLVTRCKDALAHHHHHH
localization of fluorescently-labeled protein within tumor tissue (MMTV-PyMT tumor): co-localized with CD31 staining within tumor tissue | dissociation constant (Kd) to collagen type III (collagen type III): nM range | dissociation constant (Kd) to collagen type I (collagen type I): nM range

Source: patent US20220298225A1, “METHODS AND COMPOSITIONS FOR TREATING CANCER WITH COLLAGEN BINDING DRUG CARRIERS” (The University of Chicago, priority 2019, published 2022)
